Data reported in paper PMC5624781.

Experiments:
GST-EEA1_(36-91) = GST-EEA1_(36-91) (UniProt Q15075); assay: BLI; BLItz system (ForteBio); 0.5 µM GST-Rabaptin5_(551-862) or GST-EEA1_(36-91) immobilised on anti-GST sensors; GppNHP-loaded Rab5 or mUbRab5 at several concentrations in solution; 50 mM Tris-HCl, 150 mM NaCl, 10 mM MgCl2, 1 mM GppNHP; global fit, Kd = koff/kon
GST-Rabaptin5_(551-862) = GST-Rabaptin5_(551-862) (UniProt Q15276); assay: as above
EEA1 (Homo sapiens) = EEA1 (Homo sapiens) (UniProt Q15075); conditions: cited from earlier work

Substance | Kd (GST-EEA1_(36-91)) | Kd (GST-Rabaptin5_(551-862)) | also measured
Rab5 (unmodified Rab5a) (from UniProt P20339 1-215) (natural protein) | 5.8 µM | 8 µM | koff (GST-EEA1_(36-91)): 0.0026 s⁻¹; kon (GST-EEA1_(36-91)): 450 M⁻¹ s⁻¹; koff (GST-Rabaptin5_(551-862)): 0.0022 s⁻¹; kon (GST-Rabaptin5_(551-862)): 660 M⁻¹ s⁻¹
Rab5 (from UniProt P20339) |  |  | Kd (EEA1 (Homo sapiens)): 2.4 µM
mUbRab5_(K165), chemically conjugated monoubiquitinated Rab5 (ubiquitin G76C disulfide-linked to Rab5 K165C) (from UniProt P0CG48 1-76) | 4.7 µM |  | 

Continued by falling Kd (GST-EEA1_(36-91)), values first:

Kd (GST-EEA1_(36-91)) | Kd (GST-Rabaptin5_(551-862)) | Substance | also measured
108 µM | 37.7 µM | mUbRab5_(K140), chemically conjugated monoubiquitinated Rab5 (ubiquitin G76C disulfide-linked to Rab5 K140C) (from UniProt P0CG48 1-76) | 
18.4 µM | 8 µM | mUbRab5_(K116), chemically conjugated monoubiquitinated Rab5 (ubiquitin G76C disulfide-linked to Rab5 K116C) (from UniProt P0CG48 1-76) | 
